The values that follow come from publication PMC4766470.

The target of assay [1] is neurotensin receptor 1 (wild type), expressed in Sf9 insect cells (rat) (UniProt P20789). Briefly: radioligand binding; saturation binding; diluted Sf9 membranes with [3H]-labelled ligand at 30-0.02 nM, 4 °C, 2 h, 50 mM Tris-HCl pH 7.4, 1 mM EDTA, 0.1% BSA; nonspecific binding with 1000-fold excess of unlabelled ligand; filtration; apparent constants.
Assay [2] addresses NTR1-Y06, expressed in Sf9 insect cells (rat) (UniProt P20789). The description is as above.

For the substance “[3,11-tyrosyl-3,5-3H(N)]-neurotensin (peptide)”, the Kd in assay [1] and in assay [2] was 3 nM throughout.
